In assay [1] the target is T1, Mcl-1 (human, UniProt Q07820 172-327, limits assumed).
T1 construct: Recombinant protein in solution assays; It was biotinylated in the on-bead screens; also called human Mcl-1; BioMcl-1 (biotinylated, in the bead screens)
The assay can be described thus: fluorescence anisotropy competition with fluoresceinated Bim 21mer for Mcl-1. The source says:
The standard errors reported are over three experiments.
Position 2e is usually conserved as small (alanine, glycine, serine) in natural BH3 sequences.

For the next assay, the target named is murine Mcl-1 (murine, UniProt P97287 1-331). Description: cell-based or functional assay.
Assay [2] concerns the target T1, Mcl-1. Description: biolayer interferometry, biotinylated peptide on streptavidin probe. The source says: We used biolayer interferometry to measure the kinetics of binding of stapled peptides to Mcl-1 (FIG. 1(b)). We generated biotinylated stapled peptides and attached these to a streptavidin-modified probe surface.
(In general: In BLI a coated tip is dipped into the sample, and binding shifts an interference pattern.)

Bridge positions count the residues as written; N and C are the ends. Square brackets hold non-standard residues; d marks the D form. Ends that are not written are not given here. alpha‑4‑pentenylAla = alpha-4-pentenyl alanine, stapling residue joined by ring-closing olefin metathesis; Cha = N[C@@H](CC1CCCCC1)C(=O)O; Nle = CCCC[C@H](N)C(=O)O; Aib = CC(C)(N)C(=O)O

T1 sequence (Q07820 172-327 limits assumed): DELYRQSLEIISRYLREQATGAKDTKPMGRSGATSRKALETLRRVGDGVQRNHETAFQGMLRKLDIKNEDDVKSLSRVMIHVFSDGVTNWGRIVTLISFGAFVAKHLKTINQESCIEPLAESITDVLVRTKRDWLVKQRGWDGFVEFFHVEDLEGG
murine Mcl-1, sequence (P97287 whole entry): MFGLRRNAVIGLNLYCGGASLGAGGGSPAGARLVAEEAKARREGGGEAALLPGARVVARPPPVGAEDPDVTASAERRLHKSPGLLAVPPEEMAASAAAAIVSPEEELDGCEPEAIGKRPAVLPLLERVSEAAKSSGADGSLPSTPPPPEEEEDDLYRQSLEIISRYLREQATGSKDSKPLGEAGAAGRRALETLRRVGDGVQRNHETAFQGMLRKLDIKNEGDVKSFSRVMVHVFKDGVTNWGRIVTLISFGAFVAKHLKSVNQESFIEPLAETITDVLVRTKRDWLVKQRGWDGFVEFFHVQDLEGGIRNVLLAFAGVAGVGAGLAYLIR

B1: M3d (peptide)
peptide: IW[Nle][Aib]QG[Cha]RRLGDEI[alpha‑4‑pentenylAla]AYY[alpha‑4‑pentenylAla]RR
modifications: staple 15-19
notes: Stapled peptide IWBAibQGChaRRLGDEIXAYYXRR
With B1, in the assay with Mcl-1 [1], the IC50 was found to be 72 nM. In addition, the “BH3 profiling (mitochondrial membrane integrity, JC1 dye) in Mcl-1/Myc 2640 cells, EC50” value with murine Mcl-1 is 30 nM.

B2: M1d (peptide)
peptide: IW[Nle]TQGLRRLGDEI[alpha‑4‑pentenylAla]AYY[alpha‑4‑pentenylAla]RR
modifications: staple 15-19
notes: Truncated, stapled variant of MS1, usually printed 'Mld'; also called Mld
In the assay with Mcl-1 [1], B2 registered an IC50 of 350 nM.

B3: M2d (peptide)
peptide: IW[Nle][Aib]QGLRRLGDEI[alpha‑4‑pentenylAla]AYY[alpha‑4‑pentenylAla]RR
modifications: staple 15-19
notes: Stapled peptide IWBAibQGLRRLGDEIXAYYXRR
B3 had an IC50 with Mcl-1 [1] of 106 nM.

B4: biotinylated M3d (peptide)
peptide: IW[Nle][Aib]QG[Cha]RRLGDEI[alpha‑4‑pentenylAla]AYY[alpha‑4‑pentenylAla]RR
modifications: staple 15-19; also: biotinylated, site and linker not given here
notes: also called M3d (biotinylated stapled peptide)
For B4, the Kd with Mcl-1 [2] was determined as 5 nM.

In general, IC50 refers to the concentration that gives 50% inhibition. A higher IC50 goes with lower potency. Usually Kd stands for the constant that tells how readily two partners part at equilibrium. Read a low Kd as a tighter complex.

Values taken from US20240092849A1 (MIT, published 2024).
